The assay has as its target T1, BamCDE complex (E. coli, UniProt P0A903 25-344; P0AC02 20-245; P0A937 20-113).
T1 construct: BamC, lipoprotein of the E. coli BAM complex; BamD, lipoprotein of the E. coli BAM complex; BamE, lipoprotein of the E. coli BAM complex; Unlabelled; also called BamCDE sub-complex; BamCDE subcomplex; copies: + +
The experiment in a line: SEC; equimolar combination of the detergent solubilized proteins, mild rotation 1 h at 4 °C, then gel filtration on HiLoad 26/600 Superdex 200 pg. As to conditions: both partners purified.

B1: BamAP4P5 (D264–W810) (domain or fragment)
chain: not shown
notes: BamA of E. coli, POTRA domains P4 and P5 plus the transmembrane β-barrel, residues D264–W810 (547 residues); Isotope labelled (AVLTI 13C/15N, or 13C-Ile, 13C-Phe and 15N-Gly) for the ssNMR samples; also called BamP4P5
With B1, the binding result is listed as “binds”.
